Laboratory results taken from IntAct's records for PubMed 15350218.

How the values were obtained:
syt2_rat Syt2 [1] = molecular target: syt2_rat Syt2 (UniProt P29101)
syt2_rat Syt2 [2] = molecular target: syt2_rat Syt2 (UniProt P29101); remark: listed apart in the source

Chain of syt2_rat Syt2 (P29101 whole entry): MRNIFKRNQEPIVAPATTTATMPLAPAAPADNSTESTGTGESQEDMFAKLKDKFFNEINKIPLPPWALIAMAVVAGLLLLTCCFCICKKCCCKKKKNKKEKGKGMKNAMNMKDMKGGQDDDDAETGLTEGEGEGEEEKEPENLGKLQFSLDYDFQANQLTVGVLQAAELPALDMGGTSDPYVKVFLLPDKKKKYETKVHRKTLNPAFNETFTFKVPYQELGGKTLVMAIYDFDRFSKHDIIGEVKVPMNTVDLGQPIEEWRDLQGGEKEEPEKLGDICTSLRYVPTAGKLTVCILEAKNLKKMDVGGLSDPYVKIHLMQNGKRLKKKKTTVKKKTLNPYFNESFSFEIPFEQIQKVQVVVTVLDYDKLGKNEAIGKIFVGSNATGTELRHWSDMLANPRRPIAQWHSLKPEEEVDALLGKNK

## Serine/threonine-protein kinase WNK1 (Rattus norvegicus (Rat)), Q9JIH7 V318E
syt2_rat Syt2 [1]
  effect of a mutation on the interaction: decreasing interaction

## Serine/threonine-protein kinase WNK1 (Rattus norvegicus (Rat)), Q9JIH7 V318D
syt2_rat Syt2 [2]
  effect of a mutation on the interaction: decreasing interaction
